Laboratory results: the supplement of paper PMC12042874
± gives the uncertainty stated by the source.

Experiment: amyloid nucleation score (Sup35N fusion, yeast selection) (log enrichment); library NNK3; higher = more nucleation; inactive = no reads after selection
In short: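 Sup35N was fused to peptides of 20 random codons and expressed in psi-negative yeast, which were induced with 100 μM copper sulfate for 24 hours and then grown on medium lacking adenine and uracil for 7 days at 30°C. Plasmid inserts from input and output were sequenced on Illumina. The nucleation score is the DiMSum log enrichment of output over input reads, centred on the mode score of non-aggregating sequences. Sequences with under 100 input reads were left out, and random libraries had three technical output replicates.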

Substance	amyloid nucleation score
PCYDWCLQSGR	inactive
AIPLYWIEFRVRKLSSLFLQ	inactive
SLLSRFIEEGASCRCTRDGS	inactive
KDSCCVGSRNAHFECYFEVA	inactive
LVVLFGPNFLIPVGLRIAVN	0.245 ± 0.37
DCGKWNLWSQPLGTG	inactive
DGCALSMPNYAGNQVVKQRG	inactive
FQRFYYLCWPSIWNMFQGGG	inactive
RAYSSWSLSSCRCNSDWTVG	inactive
ISNLRSVVLWNSRLQRNRGW	inactive
KNYCGKNEYVLCTD	inactive
IIIRGSSVLVVRLNDEGYVL	0.216 ± 0.63
TCNIFLGAPHGAVGRCCRAR	1.82 ± 0.11
ISILEVKMWLLWTELERTIT	inactive
FIGLIVLILRVFGYDTMRYL	inactive
KYNPTMSNYSGLLWKIGVGT	inactive
SANGMSNRRYSDHHLYVVSA	inactive
PYSLPSP	inactive
LTMSRMMYLDKMLYFLYVQW	inactive
RIIIVYR	inactive
TAYMNQIVNRELYP	inactive
VGSCIVKMIDFASTKGRGLI	inactive
DNDVHKELFSPAASLSSTWS	inactive

Substance	amyloid nucleation score
DFDAC	0.021 ± 0.52
SWLANRYMGDYIRQWVWDKL	-0.932 ± 1.8
IYRLFSARDDIVKDWRR	inactive
EPGSANRSSESNCRVGGTDD	inactive
LISNAQA	inactive
GLFESERIYMWAYHFR	inactive
EMSWRSVKSSHYKQMEFSGR	inactive
YRRYPVIR	inactive
VNRKLWGT	inactive
VLLGTSECHSHKILQGKSAV	inactive
HHLKGQ	inactive
TYSNMCVSDVLCLTLT	2.38 ± 0.048
DFRRTGLCIREWSSWRIMKL	inactive
DSYSIILCFHKNKLLVLLSP	0.156 ± 0.42
CFYAISDRRSRFSIIFTYNG	inactive
RCGYHFHQVAFFTKDVKVVE	inactive
YDYYFFNSFNISDIMR	inactive
RCSYLMRLYISSFMY	inactive
RFWKTTPNGQIRVSSVMRCM	inactive
YKSLIVNANYCDLGFLRGWC	2.6 ± 0.064
SSNLDTTVCFPVCSAPELEG	inactive
SDTSSCCYTCVYISYVDHFF	2.41 ± 0.052
IAVDFRYCYDYGSNSSCRLA	1.88 ± 0.11

Substance	amyloid nucleation score
VNNKHVVWCSVHGGSSR	inactive
IAHVMYNYQHVTSCNMSSVL	0.726 ± 0.13
PPLPRFSLSFGRWLFLICHE	inactive
TISATLVYQ	inactive
LKRVDEVVIDPLYREGYTER	inactive
SVVYRKDSIKQRKEFSSHAF	inactive
LLKEFIL	inactive
VLRKLYLSPDSGVNYCGDPV	inactive
DQAYWKQCSMSIWYGFRRLV	inactive
RLYNTIFPSKKIWYKKLEGC	inactive
RFDDRG	inactive
VMMYFQFMPLKPSRD	1.25 ± 0.12
PLSFIKRRFRRLAGLSRSSA	inactive
IVYTSSLSAMCMRGRNGAVR	inactive
CFNSR	inactive
KFLITETGSEL	inactive
GWNSFPRPLYPRWDNSESAS	inactive
NMALLEYDSMSFICRYRNRP	inactive
AWSVIMCFIWNRCKRRSS	inactive
GRCRITKSLGGSSQTNGYWV	inactive
GSSCRRINTEYSLAAYQSYE	inactive
GPWGSNNMQICTYFQNLFIA	1.73 ± 0.092
KPVYYQCLENISSFEC	inactive

Substance	amyloid nucleation score
CSIILWALPEFNLLDFLPAD	inactive
LSLFPMGCIYKHRIGLVTAK	inactive
IVLIKDYYSIRFDSEGIVDI	inactive
RLNRVGNFIAGHLIGA	inactive
QTLNERTWTGYDIHVRHVRR	inactive
AWAVEATRFILLRWGQGTWD	-0.247 ± 1.3
RVVLMWDYLIDF	1.08 ± 0.16
GMFDCMIELYISGPDLGQGS	inactive
LMIMSKVSKSP	0.465 ± 0.25
WCLPNCPIVFNMHQLAHLSR	0.021 ± 0.44
FTFCTCAKSAWTGLGLQGKI	inactive
NWYVECYITYSLVLYLANDS	1.69 ± 0.066
VIANVKIMTFFMAFSAVHTM	1.48 ± 0.13
NSTNMDSFGIPLNRILWMLN	inactive
SCTVKSAGGFVSHRFNGSMG	inactive
YAALILGVVQCAGLILFYVI	inactive
FEKGSFLDRTESSHIGGLMH	inactive
WLRRN	inactive
HSELW	inactive
CSSQTIRGTDKSHDVLAKLL	inactive
YDCVIYSVAECLYVTSSFIE	0.253 ± 0.18
WVCTVVLVKDLPPRRSVLVG	inactive
HIEFNWPVGLARSWMFCFSH	inactive

Substance	amyloid nucleation score
VWGAHPLFGSISVARTISNW	inactive
ESIRCFSTYKNGSIRSFRAL	inactive
NICMAI	inactive
IISVIVTVYR	inactive
FIEVEVWRESSR	inactive
EWGTWSTY	inactive
VLSRGDMATFTTVMMRRDAH	inactive
MTSFVWSCWRHYYRSRIVVV	inactive
CLNYSETCSPI	inactive
SHFGLDAICFIKLSTDGCTG	inactive
GRHNKCMVDLVEDFQLASIW	inactive
GVLLFLYCYLRGPLYSTTSV	inactive
LCFFVERRLKGYDVGLSNLL	inactive
FDWIE	inactive
FLFRC	inactive
WGVHCMSQDVRVWWLSLWGG	inactive
CIRPVLSHSYEIKNTGLGRT	inactive
RSCCLQPT	inactive
INWGWLPCTRTSTIGSRGRS	inactive
LMIISGCSHMSHSVRSTRGL	-0.217 ± 0.58
CMFCLPMGNSIRGLGNRNSV	1.87 ± 0.074
RVGTAF	-0.517 ± 0.84
QRITDKMSYADSLLRSST	inactive

Substance	amyloid nucleation score
ACRGLVDVNNWLSGYGIRIG	inactive
RAFFDC	-0.47 ± 0.66
SNSDVN	inactive
WHSYTKLCGRTSPPSSTLTG	inactive
RWQRLSRHGISDSPLAREAA	-0.917 ± 1.8
RPQSLVYRFISYHRLYYLYR	inactive
DCALAAGMK	inactive
TRNMRWNFVDLARNRASLNS	inactive
RTWLGWEGNIIPSETGTYRS	inactive
DFELFSSALGSLSNGHSENV	inactive
FFSFTISMAWKGQVTELKCQ	inactive
HLKSVGVVYDWMSQWSLWCR	inactive
LIWYRNDEWYSFLWMVYCSS	inactive
NLTQFYWSCGEVRVTAFYGA	2.08 ± 0.079
MFLCYNVLVVTESLGLAHLD	inactive
CILYRFPPATKSHRITGIYK	inactive
CMGACLAGDTCKWIRQHLSG	inactive
PLEVLAKFFWDDWATHSMDL	inactive
HGGMVSMGGNKQ	inactive
VNKNVMWHDNNKFFHPFRAI	1.6 ± 0.082
SKVKFILTRVPLFLLRIAES	inactive
YDIMVVWWFFVCSRSV	inactive
FIGDVLGSINGKCHLEYLYF	inactive

Substance	amyloid nucleation score
FSIQSRCAVGWLSIGSVTAR	inactive
ILKMFTSGYCRVLWDLVVMV	inactive
DYYGLK	inactive
IRSVL	inactive
WNYPFNFQF	inactive
MNFGYNNSFAIYSVFYSYRC	2.69 ± 0.055
NCHSFVYYSMLGVSLSISGN	2.29 ± 0.059
SPDVLFESKYRFWDMLSQIA	inactive
EYTLPRPCRLLIFSDQYSNA	inactive
NTAPNISRSVIVCYYDDGEK	inactive
NRTFNYNIQNVGSSWEL	0.233 ± 0.19
VRHGSMTDCYFLHTLDRREC	inactive
TMLYGSIRQSGDMQMSTLSV	inactive
GGKSVLLTFFQWLP	0.56 ± 0.2
FFVTR	inactive
RILLFMHPMSICMSP	inactive
RSFHYRIACESNLAVEVHFR	1.74 ± 0.066
TPLSHNVRIMKKLGCDRRD	inactive
PLCNCVNRENSDGMMWGYRE	inactive
